# Measured values published in the nanobody polyreactivity screen of Harvey et al. (2022).
# Test: yeast display, Sf9 membrane polyspecificity reagent, FACS + sequencing; frameworks hold sequencing errors
# In short: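 After 36–48 hours of galactose induction, yeast (Saccharomyces cerevisiae BJ5465) displaying a synthetic nanobody library were stained at 4 °C for 1 hour with 10% biotinylated, detergent-solubilized Sf9 membrane reagent. Streptavidin microbeads enriched the stained cells before FACS sorting into low and high (top ~1%) gates on anti-HA and streptavidin fluorescence. Each clone's polyreactivity label reflects its gate of origin.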
row,Sequence,polyreactivity (PSR sort gate)
1,QVQLVESGGGLVQAGGSLRLSCAASGSTFTSNAMGWYRQAPGKEREFVAAISVGGGITYYADSVKGRFTISRDNAKISVYLQMNSLKPEDTAVYYCAADGEYPHSEDFEYWGQGTQVTVSS,low polyreactivity
2,QVQLVESGGGLVQAGGSLRLSCAASGSTFTSNAMGWYRQAPGKERELVAAISFSDASTYYADSVKGRFTISRDNAKKTVYLQMNRLKPEDTAVYYCNADYPTTAYDYCGQGTQVTVSS,low polyreactivity
3,QVQLVESGGGLVQAGGSLRLSCAASGSTFTSNAMGWYRQAPGKERELVAAISSGGSTSYADSVKGRFSISRDNAKNTVYLQMNSLKPEDTAVYYCAVGVLYAGYFYRYRYYYWGQGTQVTVSS,high polyreactivity
4,QVQLVESGGGLVQAGGSLRLSCAASGSTFTSNAMGWYRQAPGKERELVASISGSGGRTDYADSVKGRFTISRDNAKNTVYLQMNSLKPEDTAVYYCNAESRNLYSTQFDYWGQGTQVTVSS,low polyreactivity
5,QVQLVESGGGLVQAGGSLRLSCAASGSTFTSNAMGWYRQAPGKERELVASISGSGGRTYYADSVKGRFTISRDNAKNTVYLQMNSLKPEDTAVYYCNAESRNLYSTQFDYLGQGTQVTVSS,low polyreactivity
6,QVQLVESGGGLVQAGGSLRLSCAASGSTFTSYAMGWYRQAPGKERELVAAINWSGGSTYYADSVKGRFTISRDIAKNTVYLQMNSLKPEDTAVYYCAVLYRYGYDYWGQGTQVTVSS,low polyreactivity
7,QVQLVESGGGLVQAGGSLRLSCAASGSTFTSYAMGWYRQAPGKERELVAAITSRGGTSYADSVKGRFTISRDNAKNTVYLQMNSLKPEDTAVYYCAARATYKKYPYVKWYDYWGQGPQVTVSS,high polyreactivity
8,QVQLVESGGGLVQAGGSLRLSCAASGSTFTSYAMGWYRQAPGKERELVAAITYGSGTTYADSVKGRFTISRDNAKNTVYLQMNSLKPEDTAVYYCAADFYYPVLGHGFPTYEYDYWGQGTQVTVSS,low polyreactivity
9,QVQLVESGGGLVQAGGSLRLSCAASGSTFTSYDMGWYRQAPGKERELVAAITISSGGTYYADSVKGRFTISRDNAKITVYLQMNSLKPEDTAVYYCAADIFADASYDYWGQGTQVTVSS,low polyreactivity
10,QVQLVESGGGLVQAGGSLRLSCAASGSTFTTNAMGWDRQAPGKERELVAAITWSVGSTYYADSVKGRFTISRDYAKNTVYLQMNSVKPEDNAVYYCAAYHPPGDTYEYWGQGTQVTVSS,low polyreactivity
11,QVQLVESGGGLVQAGGSLRLSCAASGSTFTTYAMGWYRQAPGKERELVAVITDSGGTYYADSVKGRFTISRDNAKNTVYLQMNSLKPEDTAVYYCNRFFPPTDYEFDSWGQGTQVTVSS,low polyreactivity
12,QVQLVESGGGLVQAGGSLRLSCAASGSTFTTYAMGWYRQAPGKESELVAAITWSVGSTYYADSVMGRFTISRDNAKNTVYLQMNSLKPEDTAVYYCAADPTGGVGFDGYYWGQGTQVTVSS,low polyreactivity
13,QVQLVESGGGLVQAGGSLRLSCAASGSTFTVNGMGWYRQAPGKERELVASITWSGGSTYYADSVKGRFTISRDNAKNTVYLLMNSLKPEDTAVYYCAADEKLYITGYDYWGHGTQVTVSS,low polyreactivity
14,QVQLVESGGGLVQAGGSLRLSCAASGSTFTVNGMGWYRQAPGKERELVASITWSGGSTYYADSVKGRFTISRDNAKNTVYLQMNSLNPEDTAVYYCAADEKLYITGYDYWVQGTQVTVSS,low polyreactivity
15,QVQLVESGGGLVQAGGSLRLSCAASGSTFTVNGMGWYRQAPGKERELVASITWSGGSTYYADTVKGRFTISRDNAKNTVYLQMNSLKPEDTAVYYCAADEKLYITGYDYWGQGTQVTVSS,low polyreactivity
16,QVQLVESGGGLVQAGGSLRLSCAASGSTFTVYAMGWYRQAPGKERELVAAISSSTGSTYYADSVKGRFTISRDNAKNTVYLQMNSLKPEDTAVYYCAADVYQVTTSSYTEFEYWGQGTQVTVSS,low polyreactivity
17,QVQLVESGGGLVQAGGSLRLSCAASGSTFTWNVMGWYRQAPGKERELVASITSGDSTYADSVKGRFTISRDNAKNTVYLQMNSLKPEDTAVYYCNVGYDQEKYGYWGQGTQVTVSS,low polyreactivity
18,QVQLVESGGGLVQAGGSLRLSCAASGSTFTWYAMGWSRQAPGKERELVADISYGGGSTYYADSVKGRFTISRDNAKNTVYLQMNSLKPEDTAVYYCAAESIPYYRYDYWGQGTQVTVSS,low polyreactivity
19,QVQLVESGGGLVQAGGSLRLSCAASGSTFTYNAMGWYRQAPGKERELVAVIRPGGNTNDADSVKGRFTISRDNAKNTVYLQMNSLKPEDTAVYYCAKYFGNYSIYDYWGQGTQVTVSS,low polyreactivity
20,QVQLVESGGGLVQAGGSLRLSCAASGSTFTYNARGWYRQAPGKERELVAVIRPGGTTNYADSVKGRFTISRDNAKNTVYLQMNSLKPEDTAVYYCAKFFGNYSIYDYWGQGTQVTVSS,low polyreactivity
21,QVQLVESGGGLVQAGGSLRLSCAASGSTFTYNTMGWYRQAPGKERELVAAINTTGNTYADSVKGRFTISRDNAKNTVYLQMNSLKPEDTAVYYCNTDYVPRRHDMDYWGQGTQVTVSS,low polyreactivity
22,QVQLVESGGGLVQAGGSLRLSCAASGSTFTYNTMGWYRQAPGKERELVAAISSGGSTYYADSVKGRFTISRDNAKNTVYLQMNSLKPEDTAVYYCAATAQKDSRYGSRYYYWGQGTQVTVSS,high polyreactivity

row,Sequence,polyreactivity (PSR sort gate)
1,QVQLVESGGGLVQAGGSLRLSCAASGSTFTYYAMGWYRQAPGKERELVAAIRNGGSTNYADSVKGRFTISRDNAKNTVYFQMNSLKPEDTAVSYCAADQYYYTQPCDMDYWGQGTQVTVSS,high polyreactivity
2,QVQLVESGGGLVQAGGSLRLSCAASGSTFTYYAMGWYRQAPGKERELVAAISSTDSTYYADSVKGRFTISRDNAKNTVYVQMNSLKPEDTAVYYCAAVRFSHSRETRRGYWGQGTQVTVSS,high polyreactivity
3,QVQLVESGGGLVQAGGSLRLSCAASGSTFTYYAMGWYRQAPGKERELVAAITFRGDSTYYADSVKGRFTISRDNAKNTVYLQMNSLKPEDTAVYYCNADSISSTYYDEDYWGQGTQVTVSS,low polyreactivity
4,QVQLVESGGGLVQAGGSLRLSCAASGSTFTYYAMGWYRQAPGKERELVADISRDGGSTYYADSVKGRFTISRDNAKNTVNLQMNSLKPEDTAVYYCATDMVYKYDYWGQGTQVTVSS,low polyreactivity
5,QVQLVESGGGLVQAGGSLRLSCAASGSTFTYYAMGWYRQAPGKERELVASINWSGGSTRYADSVKGRFTISRDNAKNTVYLQMNSLKPEDTAVYYCAARKSPRSQVRGRSYYWGQGTQVTVSS,high polyreactivity
6,QVQLVESGGGLVQAGGSLRLSCAASGSTFTYYSMGWYRQAPGKERELVDAITGRGGRTYYADSVKGRFTISRDNAKNTVYLQMNSLKPEDTAVYYCARYQSSDTYWTKYDYWGQGTQVTVSS,high polyreactivity
7,QVQLVESGGGLVQAGGSLRLSCAASGSTFVDYAMGWYRQAPGKERELVAAISSSGSTNYADSVKGRFTISRDNAKNTVYLQMNSLKPEDTAVYYCNADGNPDFYYSFYDEYDYWGQGTQVTVSS,low polyreactivity
8,QVQLVESGGGLVQAGGSLRLSCAASGSTFVGNAMGWYRQAPGKERELVAAITWSGGTYYADSVKGRFTISRDNAKNTVYLQMNSLKPEDTAVYYCNAEWRVYPDLYDYWGQGTQVTVSS,low polyreactivity
9,QVQLVESGGGLVQAGGSLRLSCAASGSTFVGYAMGWYRQAPGKEMEFVAAITRGGSTNYADSVKGRFTISRDNAKNTVYLQMNSLKPEDTAVYYCAARDRREGFIFDYWGQGTQVTVSS,low polyreactivity
10,QVQLVESGGGLVQAGGSLRLSCAASGSTFVGYAMGWYRQAPGKERELVAAISGSGTSTYYADSVKGRFTISRDNAKNTVYLQMNSLKPEDTAVYYCNADPIFVYSSYNYWGQGTQVTVSS,low polyreactivity
11,QVQLVESGGGLVQAGGSLRLSCAASGSTFVGYAMGWYRQAPGKERELVADIDSIGGSTYYADSVKGRFTISRDYAKNTVYLQMNSLKPEDTAVYYCAARRFDTALVLYDYWGQGTQVTVSS,low polyreactivity
12,QVQLVESGGGLVQAGGSLRLSCAASGSTFVHYAMGWYRQAPGKEREFVASITRSGTSTYYADSVKGRFTISRDNAKNNVYLQMNSLKPEDTAVYYCNAELLGARQYWYYRYYYWGQGTQVTVSS,high polyreactivity
13,QVQLVESGGGLVQAGGSLRLSCAASGSTFVINAMGWYRQAPGKEREFVAAISYSRGITYYADSVKGRFTISRDNAKNYVDLQMNSLKQEDTAVYYCAVSPFENRDSGYDYWGQCTQVTVSS,low polyreactivity
14,QVQLVESGGGLVQAGGSLRLSCAASGSTFVINAMGWYRQAPGKERELVADIDYRGGSTNYADSVKGRFTISRDNAKNTVYLPMNSLKPEDTAVYYCNKRYVIRRRGYDYWGQGTQVTVSS,low polyreactivity
15,QVQLVESGGGLVQAGGSLRLSCAASGSTFVINAMGWYRQAPGKERELVARISSSGGRTYYADSVKGRFTISRDNAKNTVYLQMNSLKPEDTAVYYCAKRGYLFLRGSVRVGYNYWGHGTQVTVSS,low polyreactivity
16,QVQLVESGGGLVQAGGSLRLSCAASGSTFVIYAMGWYRQAPGKERELVAAISGRTGSTYYADSVKGRFTISRDNAKNTVYLQMNSLKPEDTAVYYCAAYKRSGLKYGHWGQGTQVTVSS,high polyreactivity
17,QVQLVESGGGLVQAGGSLRLSCAASGSTFVIYAMGWYRQAPGKERELVATITSGGSTYYADSVKGRFTISRDNAKNTVYLQMNSLKPEDTAVYYCAADDWGWPFYYYDDPMDYWGQGTQVTVSS,high polyreactivity
18,QVQLVESGGGLVQAGGSLRLSCAASGSTFVKNAMGWYRQAPGKERELVAAISYRGGRTYYADSVKGRFTISRDNAKNTVYLQMNSLKPEDTAVYYCAADYISVYGYEYYYWGQGTQVTVSS,high polyreactivity
19,QVQLVESGGGLVQAGGSLRLSCAASGSTFVKNTMGWYRQAPGKERELVAAIRSSGGSTYYADSVKGRFTISRDNAKNTVYLQMNSLKPEDTAVYYCAAPRVSVHGGGYWGQGTQVTVSS,high polyreactivity
20,QVQLVESGGGLVQAGGSLRLSCAASGSTFVKNVMGWYRQAPGKERELVAGITRGGSTYYADSVKGRFTISRDNAKNTGSLQMNSLKPEDTAVYYCANRYAWDRDYWGQGTQVTVSS,high polyreactivity
21,QVQLVESGGGLVQAGGSLRLSCAASGSTFVKYTMGWYRPAPGKERELVAAIRRRGGSTYYADSVKGRFTISRDNAKNTVYLQMNSLKPEDTAVYYCATAGQGAFWGQGTQVTVSS,high polyreactivity
